Reference: US20140369978A1
Positions count from the first letter of the chain named. Names may count otherwise. Values belong to the binder of their own block, whether it stands above or below them.

Experiments:
[1] = biological target: Fc-fusion protein receptor ectodomain of BMPR-IB; assay: ratio KD(IA):KD(IB) from Biacore, relative to wild type
[2] = biological target: Fc-fusion protein receptor ectodomain of BMPR-IB; assay: ratio of Biacore KDs, BMPR-IA as reference; measurement 1
[3] = biological target: Fc-fusion protein receptor ectodomain of BMPR-IB; assay: ratio of Biacore KDs, BMPR-IA as reference; measurement 2
[4] = biological target: Fc-fusion protein receptor ectodomain of BMPR-II; assay: SPR (Biacore T100), receptor ectodomain-Fc on protein G chip, equilibrium binding (KD eq)
[5] = biological target: Fc-fusion protein receptor ectodomain of BMPR-IA; assay: SPR (Biacore T100), receptor ectodomain-Fc on protein G chip, kinetic 1:1 fit; measurement 1
[6] = biological target: Fc-fusion protein receptor ectodomain of BMPR-IB; assay: as above
[7] = biological target: Fc-fusion protein receptor ectodomain of BMPR-IA; assay: SPR (Biacore T100), receptor ectodomain-Fc on protein G chip, kinetic 1:1 fit; measurement 2
[8] = biological target: Fc-fusion protein receptor ectodomain of BMPR-IB; assay: as above

fold higher IB affinity over IA compared to WT [1]: 1 fold
fold higher IB affinity over IA, KD(IA): KD(IB) [2]: 122 fold
fold higher IB affinity over IA, KD(IA): KD(IB) [3]: 40 fold
Kd [4]: 32 nM
Kd [5]: 1 nM
Kd [6]: 0.008 nM
Kd [7]: 1.1 nM
Kd [8]: 0.027 nM
B1: recombinant human GDF-5 wild type (ligand)
chain: APLATRQGKRPSKNLKARCSRKALHVNFKDMGWDDWIIAPLEYEAFHCEGLCEFPLRSHLEPTNHAVIQTLMNSMDPESTPPTACVPTRLSPISILFIDSANNVVYKQYEDMVVESCGCR

fold higher IB affinity over IA compared to WT [1]: 14.7 fold
fold higher IB affinity over IA, KD(IA): KD(IB) [3]: 587 fold
Kd [7]: 27 nM
Kd [8]: 0.046 nM
B2: human GDF-5 mutant W417F (ligand)
chain: B1 chain with W36F, A84C

fold higher IB affinity over IA compared to WT [1]: 5.5 fold
fold higher IB affinity over IA, KD(IA): KD(IB) [2]: 668 fold
Kd [5]: 20.3 nM
Kd [6]: 0.03 nM
B3: recombinant human GDF-5 mutant W414R (ligand)
chain: B1 chain with W33R, A84C

fold higher IB affinity over IA compared to WT [1]: 8.3 fold
fold higher IB affinity over IA, KD(IA): KD(IB) [3]: 333 fold
Kd [7]: 13 nM
Kd [8]: 0.039 nM
B4: human GDF-5 mutant M412V (ligand)
chain: B1 chain with M31V, A84C

fold higher IB affinity over IA compared to WT [1]: 5.9 fold
fold higher IB affinity over IA, KD(IA): KD(IB) [2]: 717 fold
Kd [4]: 32 nM
Kd [5]: 32.5 nM
Kd [6]: 0.045 nM
B5: human GDF-5 mutant R438K (ligand)
chain: B1 chain with R57K, A84C

fold higher IB affinity over IA compared to WT [1]: 19.7 fold
fold higher IB affinity over IA, KD(IA): KD(IB) [2]: 2400 fold
Kd [4]: 10 nM
Kd [5]: 43.4 nM
Kd [6]: 0.01 nM
B6: human GDF-5 mutant S439K (ligand)
chain: B1 chain with S58K, A84C

fold higher IB affinity over IA compared to WT [1]: 1.8 fold
fold higher IB affinity over IA, KD(IA): KD(IB) [2]: 216 fold
Kd [4]: 32 nM
Kd [5]: 0.54 nM
Kd [6]: 0.0025 nM
B7: recombinant human GDF-5 mutant R399M (ligand)
chain: B1 chain with R18M, A84C

fold higher IB affinity over IA compared to WT [1]: 5.5 fold
fold higher IB affinity over IA, KD(IA): KD(IB) [3]: 219 fold
Kd [7]: 5.7 nM
Kd [8]: 0.026 nM
B8: recombinant human GDF-5 mutant I449V (ligand)
chain: B1 chain with I68V, A84C

fold higher IB affinity over IA compared to WT [1]: 56.2 fold
fold higher IB affinity over IA, KD(IA): KD(IB) [3]: 2650 fold
Kd [7]: 98 nM
Kd [8]: 0.037 nM
B9: human GDF-5 mutant W417R (ligand)
chain: B1 chain with W36R, A84C

fold higher IB affinity over IA compared to WT [1]: 14.5 fold
fold higher IB affinity over IA, KD(IA): KD(IB) [3]: 581 fold
Kd [7]: 25 nM
Kd [8]: 0.043 nM
B10: recombinant human GDF-5 mutant S439E (ligand)
chain: B1 chain with S58E, A84C

fold higher IB affinity over IA compared to WT [1]: 1.1 fold
fold higher IB affinity over IA, KD(IA): KD(IB) [2]: 130 fold
Kd [4]: 32 nM
Kd [5]: 22.5 nM
Kd [6]: 0.172 nM
B11: recombinant human GDF-5 mutant R399E (ligand)
chain: B1 chain with R18E, A84C
